# Entries after “also recorded” stand apart in the source; their conditions may differ.
# B1: TRC105: anti-endoglin blocking antibody, in clinical trial as an anti-tumor therapy (antibody, chains of the INN, looked up, V domains shown)
# VH: EVKLEESGGGLVQPGGSMKLSCAASGFTFSDAWMDWVRQSPEKGLEWVAEIRSKASNHATYYAESVKGRFTISRDDSKSSVYLQMNSLRAEDTGIYYCTRWRRFFDSWGQGTTLTVSS
# VL: QIVLSQSPAILSASPGEKVTMTCRASSSVSYMHWYQQKPGSSPKPWIYATSNLASGVPVRFSGSGSGTSYSLTISRVEAEDAATYYCQQWSSNPLTFGAGTKLELK
# B2: TGFβ3: growth factor TGFβ3 (Peprotech), transforming growth factor β ligand (protein, UniProt P10600 301-412, looked up)
# Transforming growth factor …: ALDTNYCFRNLEENCCVRPLYIDFRQDLGWKWVHEPKGYYANFCSGPCPYLRSADTTHSTVLGLYNTLNPEASASPCCVPQDLEPLTILYYVGRTPKVEQLSNMVVKSCKCS
# modifications: Transforming growth factor beta-3
# notes: growth factor TGFβ3 (Peprotech), transforming growth factor β ligand
# B3: Activin: growth factor ActivinA (Miltenyi), 25 ng/ml in mesoderm induction medium (protein, UniProt P08476 311-426, looked up)
# Inhibin beta A chain: GLECDGKVNICCKKQFFVSFKDIGWNDWIIAPSGYHANYCEGECPSHIAGTSGSSLSFHSTVINHYRMRGHSPFANLKSCCVPTKLRPMSMLYYDDGQNIIKKDIQNMIVEECGCS
# modifications: Inhibin beta A chain
# B4: BMP9: BMP9 (R&D), ligand for signaling in ECs, circulating vascular quiescence factor (protein, UniProt Q9UK05 320-429, looked up)
# Growth/differentiation factor …: SAGAGSHCQKTSLRVNFEDIGWDSWIIAPKEYEAYECKGGCFFPLADDVTPTKHAIVQTLVHLKFPTKVGKACCVPTKLSPISVLYKDDMGVPTLKYHYEGMSVAECGCR
# Tests used:
# Assay type in all cases: cell-based, human
# [1] = tested on: control iPSC-derived ECs co-cultured with control iPSC-derived pericytes/mesenchymal cells; assay: 2D endothelial-pericyte co-culture sprouting assay, control ECs; conditions: for formation of vascular/endothelial sprouts: TGFβ3 1 ng/ml, compared to control condition
# Procedure: (§1) The endothelial capillary-like network formation assay was carried out as previously described but with major modifications (Evensen et al., 2013). These included using both ECs and pericytes derived from human iPSC lines. This is described in more detail elsewhere (Orlova et al., manuscript in preparation). ECs were labelled with the general cytoplasmic labeling dye (PKH-26). For the sprouting assay, 12,000 ECs derived from both control and diseased lines were plated with 50,000 control iPSC-derived pericytes/well on 0.1% gelatin coated 96-well plates in EGM-2 (Lonza, CC-3162). Next day and on the day 4 of the assay, medium was replaced with new EGM-2 media containing tested compounds as indicated in the figure legends. Endothelial-pericyte co-culture was terminated on day 7 of the assay each well immunofluorescently stained for quantification, as follows: co-cultures were fixed with the 4% paraformaldehyde (PFA), permeabilized with the 0.1% TX-100 and blocked with the normal goat serum (Dako). Endothelial sprouts were visualized with the mouse anti-CD31 (Dako, 1:200). In some experiment with the mouse blocking antibodies, rabbit anti-CD31 (Scbt, 1:200) was used instead. Pericytes were visualized with antibodies against SM22 (Sigma, 1:200). The endothelial network was imaged with the BD Pathway 855 system using the 4× or 10× objective and 2×2 (or 3×3) Montage mode. Total area covered by the endothelial sprouts was quantified with the protocol developed within cell image analysis software CellProfiller (Broad Institute). High magnification images were acquired with the SP5 confocal microscope, using 10× and 40× objectives.
# A two-dimensional co-culture system was first established in vitro consisting of control iPSC-derived ECs cultured with the control iPSC-derived mesenchymal cells (FIG. 10A). The protocol was optimized and adapted to the BD Pathway 855 imaging system, based on the protocol initially described for the co-culture of HUVECs and vascular SMCs (vSMCs) (Evensen et al., 2013). On day 7 of the co-culture, iPSC-derived EC had organized and formed spouts on the top mesenchymal cells, as evidenced by immunofluorescent staining with the EC-specific CD31 and SMC-specific SM22 markers (FIG. 10B).
# (§2) Endothelial cell-pericyte co-culture was performed as described previously (Evensen et al., 2013) but using conditions optimized for iPSC-derived ECs and pericytes as described (Orlova et al., manuscript in preparation). In brief, 12,000 and 50,000 iPSC-derived ECs and pericytes were plated, respectively, in each well of a 96-well plate. Next day the co-cultures were refreshed with the specific treatment conditions indicated. The co-culture was fixed on day 7, and EC sprouts stained with anti-CD31 antibody (1:200, Dako) (as described in Orlova et al., manuscript in preparation). Pericytes were visualized with the anti-SM22 antibody (1:200, Abcam). The BD Pathway 855 system was used for automatic image acquisition, with the 4× objective and 2×2 (or in some cases 3×3) montage mode. CellProfiller (Broad Institute) custom pipeline was used for the image quantification.
# [2] = tested on: HHT1-iPSC-derived ECs co-cultured with control iPSC-derived pericytes; assay: 2D endothelial-pericyte co-culture sprouting assay, HHT1 patient ECs; conditions: day 7, HHT1-iPSC ECs; for formation of endothelial sprouts: TGFβ3 1 ng/ml; for formation of the sprouting network: BMP9 1 ng/ml
# Procedure: as §1
# It was hypothesized that this system might be useful for distinguishing […] versus paracrine effects of endoglin deficiency in HHT1-iPSCs-derived ECs. Therefore, ECs from HHT-iPSC lines in the co-culture assay combined with the pericytes derived from the control iPSCs were examined. Little difference was observed between ECs from HHT1 and control iPSCs in co-culture. ECs from the patient harboring the 1083delAA and IVS 5+2 (T>C) mutation similar endothelial sprout formation as the controls (FIGS. 11A and 11B).
# as §2
# [3] = tested on: iPSC-derived pericytes/mesenchymal cells; assay: Contractile smooth muscle marker expression in iPSC-derived pericytes/mesenchymal cells; conditions: stimulation with TGFb (FIG. 16)
# Procedure: Our differentiation system facilitates simultaneous derivation and expansion of pericytes and ECs from iPSC lines. […] Thus, a renewable source of pericytes/SMCs was created for co-culture with ECs that would in principle be able to simulate endothelial-pericyte interaction in humans.
# iPSC-derived pericytes/mesenchymal cells were derived from the CD31− fraction emerging during the endothelial differentiation protocol. CD31− cells were plated on gelatin coated plates in EGM-2 media (Lonza). After 4 days medium was replaced by DMEM+10% FBS supplemented with TGFβ3 (2 ng/ml, Peprotech) and PDGF-BB (4 ng/ml, Peprotech). iPSC-derived pericytes were routinely maintained on gelatin-coated plates in DMEM+10% FBS. Cells were characterized for the expression of pericyte and mesenchymal cell-specific markers by flow cytometry and immunofluorescent staining as describe above.
# ECs and pericytes were cultured as described above on gelatin coated coverslips. Cells were fixed with 4% PFA, permeabilized and stained with the following antibodies as described (Orlova et al., Manuscript in preparation): anti-Ve-Cadherin (1:200, CellSignaling), anti-vWF (1:200, Dako), anti-CD31 (1:200, Dako), anti-SM22a (1:200, Abcam), anti-SMA (1:400, Sigma), anti-CNN1 (1:200, Sigma).
# hPSCs = assay: Monolayer endothelial differentiation of hPSCs in defined medium, flow cytometry at day 10; conditions: additional Activin 25 ng/ml on days 0-3 (BVAC vs BVC); range of iPSC lines; data not shown
# Excerpt: hiPSC lines were generated from Fib or BOECs using conditional lentiviral vectors containing the four transcription factors oct4, c-myc, Klf4 and Sox2, and characterized as described previously (Dambrot et al., 2013; Freund et al., 2008; Orlova et al., manuscript in preparation). hiPSCs and hESC (line HES-NL4; (van de Stolpe et al., 2005)) were routinely maintained on growth factor reduced MATRIGEL®-(BD, 354230) coated plates in mTeSR media (StemCell Technologies, 05850) and passaged mechanically. Differentiation was induced three days after passaging colonies by replacing mTeSR medium with the differentiation media based on BPEL (without PVA) (Ng et al., 2008) with timed addition of the following growth factors: 25 ng/ml ActivinA (Miltenyi, 130-095-547), 30 ng/ml BMP4 (Miltenyi, 130-095-549), VEGF165 (R&D Systems, 293-VE) and small molecule inhibitor CHIR99021 (Tocris, 4423). At day 3 and day 7 of differentiation, the media was refreshed with BPEL containing VEGF and 5 μM SB43152 (Tocris, 1614) only.
# Cells were dissociated with TrypLE Select and washed once with the FACs buffer with the 10% FBS, followed by the single wash with the FACs buffer. […] In some experiment samples were analyzed with the MACSQuant VYB (Miltenyi). […]
molecule,measurement,setting,value
"C[C@H](NC(=O)Cc1cc(F)cc(F)c1)C(=O)N[C@H](C(=O)OC(C)(C)C)c1ccccc1 [DAPT, reference compound]",number of tip cells,"[1]; 2D co-culture system with DAPT, 46 without DAPT",64
"c1ccc2c(-c3cnn4cc(-c5ccc(N6CCNCC6)cc5)cnc34)ccnc2c1 [LDN1931189, reference compound]",sprout formation,"[1]; LDN1931189, inhibition of ALK1/ALK2/ALK3 pathway, day 7",no effect on sprout formation
B1,formation of sprouts by ECs,"[1]; TRC105 120 μg/ml, day 7",reduction in the formation of the sprouts; also recorded: significantly reduced sprouting
same,surface area covered by ECs,"[1]; TRC105, co-culture assay",significantly reduced
B2,formation of endothelial sprouts,[2],inhibits sprout formation in all lines
same,formation of endothelial sprouts,[2]; listed as TGFβ,inhibited formation of the endothelial sprouts; also recorded: inhibited endothelial network formation
same,up-regulation of vSMC contractile markers,[3],up-regulation of vSMC markers
same,formation of vascular/endothelial sprouts,[1]; day 7,dramatic reduction in the formation of the vascular sprouts; also recorded: inhibits sprout formation in all lines
same,formation of vascular/endothelial sprouts,"[1]; day 7, listed as TGFβ",inhibited endothelial network formation
B3,robustness and reproducibility of differentiation,hPSCs,more robust and reproducible differentiation
B4,formation of the sprouting network,[2],selective inhibitory effect in HHT1-iPSC-derived ECs only
same,formation of the sprouting network,[2]; listed as BMP-9,significant inhibition
same,formation of the sprouting network,"[1]; BMP9 1 ng/ml, day 7, control iPSC ECs, listed as BMP-9",no effect at all

# Source: patent US10119122B2, “Differentiation and expansion of endothelial cells from pluripotent stem cells and the in vitro formation of vasculature like structures” (Academisch Ziekenhuis Leiden, priority 2013, dated 2018)
